The values that follow come from patent US20210371867A1 (SYSMEX, published 2021).

For assay [1], the target named is human IgG antibody (human). Put plainly: sandwich chemiluminescence immunoassay on magnetic particles (HISCL-800); capture biotin-labeled mouse anti-human IgG semi-IgG; binder as detection antibody, 0.055 U/mL.
For assay [2], the target named is human IgG antibody (human). In words: sandwich chemiluminescence immunoassay (HISCL-800); PC counts over NC counts, R3 reagent stored at 4° C.
For assay [3], the target named is human IgG antibody (human). In words: sandwich chemiluminescence immunoassay (HISCL-800); detection reagent stored at 40° C. for 1 week.
Assay [4] concerns the target human IgG antibody (human). Put plainly: sandwich chemiluminescence immunoassay on magnetic particles (HISCL-800); capture biotin-labeled mouse anti-human IgG semi-IgG; binder as detection antibody, 0.052 U/mL.

B1: ALP fusion antibody of Example 2 (EK3): Fab of mouse anti-human IgG antibody, Fd-EK3-BIAPII (Fab, part only; not given: Fd and light chain of anti-IgG Fab, part only)
heavy, part: EAAAKEAAAKEAAAKLIPAEEENPAFWNRQAAQALDVAKKLQPIQTAAKNVILFLGDGMGVPTVTATRILKGQMNGKLGPETPLAMDQFPYVALSKTYNVDRQVPDSAGTATAYLCGVKGNYRTIGVSAAARYNQCNTTRGNEVTSVINRAKKAGKAVGVVTTTRVQHASPAGAYAHTVNRNWYSDADLPADAQKNGCQDIAAQLVYNMDIDVILGGGRMYMFPEGTPDPEYPDDASVNGVRKDKQNLVQEWQAKHQGAQYVWNRTALLQAADDSSVTHLMGLFEPADMKYNVQQDHTKDPTLAEMTEAALQVLSRNPRGFYLFVEGGRIDHGHHDGKAYMALTEAIMFDNAIAKANELTSELDTLILVTADHSHVFSFGGYTLRGTSIFGLAPGKALDSKSYTSILYGNGPGYALGGGSRPDVNGSTSEEPSYRQQAAVPLASETHGGEDVAVFARGPQAHLVHGVQEETFVAHIMAFAGCVEPYTDCNLPAPA
As to B1, the Counts (PC, R3 reagent stored at 4° C.) in assay [1] is 465000 counts. The same molecule showed a S/N in assay [2] of 665. Moreover, the Counts (PC, R3 reagent stored at 40° C., 1 week) in assay [3] was 436000 counts.

B2: ALP fusion antibody of Example 2 (EK1): Fab of mouse anti-human IgG antibody, Fd-EK1-BIAPII (Fab, part only; not given: Fd and light chain of anti-IgG Fab, part only)
heavy, part: EAAAKLIPAEEENPAFWNRQAAQALDVAKKLQPIQTAAKNVILFLGDGMGVPTVTATRILKGQMNGKLGPETPLAMDQFPYVALSKTYNVDRQVPDSAGTATAYLCGVKGNYRTIGVSAAARYNQCNTTRGNEVTSVINRAKKAGKAVGVVTTTRVQHASPAGAYAHTVNRNWYSDADLPADAQKNGCQDIAAQLVYNMDIDVILGGGRMYMFPEGTPDPEYPDDASVNGVRKDKQNLVQEWQAKHQGAQYVWNRTALLQAADDSSVTHLMGLFEPADMKYNVQQDHTKDPTLAEMTEAALQVLSRNPRGFYLFVEGGRIDHGHHDGKAYMALTEAIMFDNAIAKANELTSELDTLILVTADHSHVFSFGGYTLRGTSIFGLAPGKALDSKSYTSILYGNGPGYALGGGSRPDVNGSTSEEPSYRQQAAVPLASETHGGEDVAVFARGPQAHLVHGVQEETFVAHIMAFAGCVEPYTDCNLPAPA
For B2, in assay [2], the S/N worked out at 927. Moreover, in assay [3], the Counts (PC, R3 reagent stored at 40° C., 1 week) was 421000 counts. This molecule had a Counts (PC, R3 reagent stored at 4° C.) in assay [4] of 463000 counts.
